Assay results from paper PMC2876729 (The Biochemical journal, 2010).
One block for each molecule: values may come before it.

B1: Recombinant human transglutaminase-2 (enzyme, UniProt P21980 1-687, looked up)
chain: MAEELVLERCDLELETNGRDHHTADLCREKLVVRRGQPFWLTLHFEGRNYEASVDSLTFSVVTGPAPSQEAGTKARFPLRDAVEEGDWTATVVDQQDCTLSLQLTTPANAPIGLYRLSLEASTGYQGSSFVLGHFILLFNAWCPADAVYLDSEEERQEYVLTQQGFIYQGSAKFIKNIPWNFGQFEDGILDICLILLDVNPKFLKNAGRDCSRRSSPVYVGRVVSGMVNCNDDQGVLLGRWDNNYGDGVSPMSWIGSVDILRRWKNHGCQRVKYGQCWVFAAVACTVLRCLGIPTRVVTNYNSAHDQNSNLLIEYFRNEFGEIQGDKSEMIWNFHCWVESWMTRPDLQPGYEGWQALDPTPQEKSEGTYCCGPVPVRAIKEGDLSTKYDAPFVFAEVNADVVDWIQQDDGSVHKSINRSLIVGLKISTKSVGRDEREDITHTYKYPEGSSEEREAFTRANHLNKLAEKEETGMAMRIRVGQSMNMGSDFDVFAHITNNTAEEYVCRLLLCARTVSYNGILGPECGTKYLLNLNLEPFSEKSVPLCILYEKYRDCLTESNLIKVRALLVEPVINSYLLAERDLYLENPEIKIRILGEPKQKRKLVAEVSLQNPLPVALEGCTFTVEGAGLTEEQKTVEIPDPVEAGEEVKVRMDLLPLHMGLHKLVVNFESDKLKAVKGFRNVIIGPA
B2: Recombinant human endostatin produced in HEK 293-EBNA cells (wild type) (domain or fragment, UniProt P39060 1572-1754, looked up)
chain: HSHRDFQPVLHLVALNSPLSGGMRGIRGADFQCFQQARAVGLAGTFRAFLSSRLQDLYSIVRRADRAAVPIVNLKDELLFPSWEALFSGSEGPLKPGARIFSFDGKDVLRHPTWPQKSVWHGSDPNGRRLTESYCETWRTEAPSATGQASSLLGGRLLGQSAASCHHAYIVLCIENSFMTASK

Legend:
[1] = target: Recombinant human endostatin produced in HEK 293-EBNA cells (wild type) (human) (UniProt P39060); test: SPR
[2] = target: Recombinant human endostatin expressed in Pichia pastoris (human) (UniProt P39060); test: SPR
[3] = target: NC1(XVIII) domain R27A/R139A double mutant (human); test: ELISA
[4] = target: B2; test: ELISA
[5] = target: B1; test: SPR

Kd [1]: 6.8 nM
koff [1]: 0.000765 s⁻¹
kon [1]: 112000 M⁻¹ s⁻¹
percent inhibition of binding by 1 mM GTP [1]: 96.7%
Kd [2]: 5.59 nM
koff [2]: 0.000341 s⁻¹
Molecule: Guinea pig TG-2 extracted from liver (enzyme)

percent of the binding of the wild type NC1 domain [3]: 31%
Molecule: Recombinant human transglutaminase-2 (from UniProt P21980 1-687) (enzyme)

Molecule: B1
fold increase of binding with 8 mM CaCl2 against no cation [4]: ~38 fold
fold increase of binding with 8 mM MgCl2 against no cation [4]: ~2 fold
fold increase of binding with 8 mM MnCl2 against no cation [4]: ~10 fold

Molecule: B2
binding result [5]: binds
